Experimental findings from US20080293915A1 (published 2008) are described below.

To fix the notation:
B1: Phage-displayed 12-mer peptide HPKQSLHFPDLS (Group B; Phage ID 6) (peptide)
peptide: HPKQSLHFPDLS
modifications: not fully specified
notes: not shown: protein III of bacteriophage M13 (Ph.D-12 library, New England Biolabs); any li
B2: Phage-displayed 12-mer peptide HPYDSLHFPRMS (Group B; Phage ID 4, 6-1) (peptide)
peptide: HPYDSLHFPRMS
modifications: not fully specified
notes: also called Phage ID 6-1; not shown: protein III of bacteriophage M13 (Ph.D-12 library, New England Biolabs); any li
B3: Phage-displayed 12-mer peptide HETAVRQTSPPM (Group A; Phage ID 9, 20, 22) (peptide)
peptide: HETAVRQTSPPM
modifications: not fully specified
notes: no synthetic peptide was tested; also called Phage ID 20; Phage ID 22; not shown: protein III of bacteriophage M13 (Ph.D-12 library, New England Biolabs); any li
B4: Phage-displayed 12-mer peptide HETACRQTSPPM (Group A; Phage ID 11) (peptide)
peptide: HETACRQTSPPM
modifications: not fully specified
notes: as for B1

Ends that are not written are not given here.

T1 sequence (P24046 22-479): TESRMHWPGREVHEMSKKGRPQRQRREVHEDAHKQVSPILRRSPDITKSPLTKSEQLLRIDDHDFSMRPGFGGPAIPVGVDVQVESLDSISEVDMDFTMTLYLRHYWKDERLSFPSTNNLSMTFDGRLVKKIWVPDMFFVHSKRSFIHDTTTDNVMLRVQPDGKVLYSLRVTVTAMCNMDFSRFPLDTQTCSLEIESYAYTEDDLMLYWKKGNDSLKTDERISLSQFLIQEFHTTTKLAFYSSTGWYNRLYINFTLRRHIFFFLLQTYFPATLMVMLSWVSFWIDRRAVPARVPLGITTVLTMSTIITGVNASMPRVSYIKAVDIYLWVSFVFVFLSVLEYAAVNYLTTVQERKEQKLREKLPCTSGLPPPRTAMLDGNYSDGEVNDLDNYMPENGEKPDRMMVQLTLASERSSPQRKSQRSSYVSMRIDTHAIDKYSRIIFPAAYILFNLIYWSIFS

The assay concerns the target T1, human GABAC receptor rho1 subunit expressed on stably transfected neuroblastoma cells (human, UniProt P24046 22-479).
T1 construct: whole, on cells; the pentameric state on these cells was not measured; also called GABAC human ρ1; GABAC-transfected neuroblastoma cells
Briefly: phage display panning (Ph.D-12 library): subtraction on non-transfected neuroblastoma cells, then three rounds on GABAC-transfected neuroblastoma cells; clones sequenced. The text has this:
Screening of phage display peptides with GABAC-expressing cells MAY employ phage display to identify 12-mer peptide sequences that can serve as an NNP anchoring element. GABAC-transfected neuroblastoma cells have yielded sequences of peptides that preferentially bind to GABAC-expressing cells. For phage selection, we used a screening method similar to that previously used to identify phages that bind to ErbB receptors (Stortelers et al., 2003). Briefly, 2×10¹⁰ phages (Ph.D-12 library from New England Biolabs, MA) were incubated with control, non-transfected neuroblastoma cells in binding buffer (PBS containing 0.2% BSA, 0.05% Tween 20) for 2 hr. Non-bound phages were collected and then incubated with GABAC-transfected neuroblastoma cells for 2 hr. After rinsing several times with washing buffer (0.05% Tween 20 in PBS), bound phages were eluted using an acidic glycine buffer (50 mM glycine, 150 mM NaCl, pH 2.7) and neutralized with 1 M Tris, pH 8. After phage titration of the eluate, we performed a second and then a third round of bio-panning using the GABAC-transfected neuroblastoma cells. After the third round of panning, DNA isolated from individual phage plaques was sequenced. […] The 7 illustrated sequences represent individual phage clones from a total of 36 sequenced clones.
On to B1, for which the binding result is recorded as “binds”.

On to B2, for which the binding result was “binds”.

Take B3: the binding result is given as “binds”.

Turning to B4, the binding result is reported as “binds”.
